Legend:
[1] = target: T1, rabbit-CD19-GPI anchor-FLAG-tag fusion polypeptide (on transfected CHO-S / HEK293F cells) (rabbit; human); assay: FACS, CHO-S transfected with CD19 expression plasmid, detection with anti-mIgG-APC
T1 sequence: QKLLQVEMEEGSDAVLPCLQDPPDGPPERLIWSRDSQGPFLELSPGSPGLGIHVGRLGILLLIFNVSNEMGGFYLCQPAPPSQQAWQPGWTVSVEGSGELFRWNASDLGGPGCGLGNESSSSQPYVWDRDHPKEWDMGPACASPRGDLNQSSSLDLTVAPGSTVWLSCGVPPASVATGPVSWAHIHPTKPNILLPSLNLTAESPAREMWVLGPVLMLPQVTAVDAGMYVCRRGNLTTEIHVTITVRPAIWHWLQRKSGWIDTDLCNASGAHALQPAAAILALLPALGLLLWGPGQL

[2] = target: T1, rabbit-CD19-GPI anchor-FLAG-tag fusion polypeptide (on transfected CHO-S / HEK293F cells) (rabbit; human); assay: FACS, HEK293F transfected with CD19 expression plasmid, detection with anti-mIgG-APC
[3] = target: T2, rabbit CD19 (native, on the surface of rabbit B-cells) (rabbit); assay: FACS, rabbit PBMC
T2 construct: Natural CD19 on rabbit PBMC / B-cells; also called rbCD19; native rabbit CD19
T2 chain: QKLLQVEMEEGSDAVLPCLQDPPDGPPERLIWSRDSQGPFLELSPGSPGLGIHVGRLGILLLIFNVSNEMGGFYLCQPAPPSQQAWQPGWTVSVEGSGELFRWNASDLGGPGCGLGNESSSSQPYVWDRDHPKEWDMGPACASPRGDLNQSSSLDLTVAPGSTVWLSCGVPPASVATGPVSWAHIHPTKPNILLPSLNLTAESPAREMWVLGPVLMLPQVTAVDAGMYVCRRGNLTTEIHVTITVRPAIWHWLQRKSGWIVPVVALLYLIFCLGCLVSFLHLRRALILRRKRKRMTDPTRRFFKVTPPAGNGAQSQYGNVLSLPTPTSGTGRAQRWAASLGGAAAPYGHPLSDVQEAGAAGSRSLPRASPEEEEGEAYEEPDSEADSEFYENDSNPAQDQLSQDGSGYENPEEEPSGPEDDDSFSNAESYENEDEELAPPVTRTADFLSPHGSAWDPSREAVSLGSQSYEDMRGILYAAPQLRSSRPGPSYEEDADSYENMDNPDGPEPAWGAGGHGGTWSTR
Description: FACS analysis was applied for screening of hybridomas and to identify those hybridomas that secrete antibodies against rabbit CD19. All IgG-producing hybridomas were screened by FACS analysis of rabbit peripheral blood mononuclear cells (PBMCs) double stained with a rabbit IgM binding antibody for B-cell identification.
Freshly isolated rabbit (PBMCs) were incubated with FITC labeled anti-rabbit IgM antibody (Southern Biotech) and IgG-positive hybridoma supernatants on ice. After 45 min. incubation the PBMCs were washed once with ice cold PBS and resuspended in an PE-labeled anti-mouse IgG antibody (Invitrogen) binding the murine IgG of the hybridoma supernatant. After another 45 min. incubation on ice the cells were washed again once with ice cold PBS. Finally, the PBMCs were resuspended in ice cold PBS and immediately subjected to the FACS analyses. DAPI-HCl in a concentration of 2 μg/ml (Cayman) was added prior to the FACS analyses to discriminate between dead and live cells. A Becton Dickinson FACS Canto II device equipped with a computer and the FACSDiva software (BD Biosciences) were used for the analysis.

stained cells, absolute [n] [1]: 975 n
stained cells, relative to total number [%] [1]: 4.6%
stained cells, absolute [n] [2]: 7290 n
stained cells, relative to total number [%] [2]: 35.9%
Ratio Q2/IgM (%) [3]: 93.2%
B1: antibody 1H2 (mouse monoclonal anti-rabbit CD19 antibody) (antibody, mouse IgG2a, kappa, V domains shown)
VH: QVQLQQSGPEVVKPGASVRMSCKASGYIFTNHYIHWMKQRPGQGLEWVGCIYPGNVNSNYNEKFKGKATLTADKSSSTAYLQLSSLTSEDSAVYFCARGGYYGSSYSWFAYWGQGTLVIVSA
VL: DIVMTQSPATLSVTPGDRVSLSCRASQSISDFLHWYQQSSHESPRLLIKYASQSISGIPSRFSGSGSGSDFTLTINSVEPEDVGVYYCQNGHSFPYTFGGGTNLEIKR
notes: Mouse IgG from hybridoma; the chains are built here from variable domain plus constant region so that no leader is included; Tested as hybridoma supernatant, and later purified and labelled with Alexa 647 or biotin; also called clone 1H2; anti-CD19 A647
